Here are results for one molecule from patent US20070105796A1 (published 2007).

The experiment deals with T1, TERT (telomerase reverse transcriptase), catalytic subunit of telomerase (human, UniProt O14746 1-1132).
T1 construct: also called human TERT
Kind of experiment: co-expression in HEK293T cells, immunoprecipitation with anti-HA antibody, Western blotting with anti-TERT antibody (FIG. 3). The method, then:
After culturing 4×10⁵ HEK293T cells at 37° C. overnight under the atomosphere of 5% CO₂ (in a dish with 60 mm diameter), 2 μg of the expression plasmid of HA-tagged MAPKAPK3 or pcDNA3.1 (+) as a negative control was transfected together with 2 μg of TERT expression plasmid using FuGENE6 Transfection Reagent (Roche). After 2 days of culturing, cells were washed with ice-cold phosphate buffered physiologically saline (PBS (−)), collected and suspended in 500 μl of cell lysis buffer (20 mM Tris-HCl, pH7.4/150 mM NaCl/1 mM ethylenediaminetetraacetic acid (EDTA)/2.5 mM sodium pyrophsphate)/1 mM β-glycerophsphate/1 mM Na₃VO₄/protease inhibitor cocktail), and left to stand on ice for 10 minutes. Subsequently, centrifugation was conducted at 4° C. for 10 minutes at 14,000 rpm to collect the supernatant for use as a cell lysate. Then, 10 μl of agarose-conjugated normal rabbit IgG (Sigma) was added to 500 μl of the cell lysate and subjected to overturned mixing at 4° C. for 30 minutes, followed by subjecting to centrifugation to collect the supernatant. 10 μl of agarose-conjugated anti-HA antibody (Y11, SantaCruz) was added to the collected supernatant, and subjected to overturned mixing at 4° C. overnight, followed by subjecting to centrifugation to collect the agarose beads. […] Subsequently, the binding protein was detected by Western blotting using an anti-TERT antibody (L-20, SantaCruz). […]
On the technique in general: A western blot detects proteins with antibodies after separation by electrophoresis.

T1 sequence (O14746 whole entry): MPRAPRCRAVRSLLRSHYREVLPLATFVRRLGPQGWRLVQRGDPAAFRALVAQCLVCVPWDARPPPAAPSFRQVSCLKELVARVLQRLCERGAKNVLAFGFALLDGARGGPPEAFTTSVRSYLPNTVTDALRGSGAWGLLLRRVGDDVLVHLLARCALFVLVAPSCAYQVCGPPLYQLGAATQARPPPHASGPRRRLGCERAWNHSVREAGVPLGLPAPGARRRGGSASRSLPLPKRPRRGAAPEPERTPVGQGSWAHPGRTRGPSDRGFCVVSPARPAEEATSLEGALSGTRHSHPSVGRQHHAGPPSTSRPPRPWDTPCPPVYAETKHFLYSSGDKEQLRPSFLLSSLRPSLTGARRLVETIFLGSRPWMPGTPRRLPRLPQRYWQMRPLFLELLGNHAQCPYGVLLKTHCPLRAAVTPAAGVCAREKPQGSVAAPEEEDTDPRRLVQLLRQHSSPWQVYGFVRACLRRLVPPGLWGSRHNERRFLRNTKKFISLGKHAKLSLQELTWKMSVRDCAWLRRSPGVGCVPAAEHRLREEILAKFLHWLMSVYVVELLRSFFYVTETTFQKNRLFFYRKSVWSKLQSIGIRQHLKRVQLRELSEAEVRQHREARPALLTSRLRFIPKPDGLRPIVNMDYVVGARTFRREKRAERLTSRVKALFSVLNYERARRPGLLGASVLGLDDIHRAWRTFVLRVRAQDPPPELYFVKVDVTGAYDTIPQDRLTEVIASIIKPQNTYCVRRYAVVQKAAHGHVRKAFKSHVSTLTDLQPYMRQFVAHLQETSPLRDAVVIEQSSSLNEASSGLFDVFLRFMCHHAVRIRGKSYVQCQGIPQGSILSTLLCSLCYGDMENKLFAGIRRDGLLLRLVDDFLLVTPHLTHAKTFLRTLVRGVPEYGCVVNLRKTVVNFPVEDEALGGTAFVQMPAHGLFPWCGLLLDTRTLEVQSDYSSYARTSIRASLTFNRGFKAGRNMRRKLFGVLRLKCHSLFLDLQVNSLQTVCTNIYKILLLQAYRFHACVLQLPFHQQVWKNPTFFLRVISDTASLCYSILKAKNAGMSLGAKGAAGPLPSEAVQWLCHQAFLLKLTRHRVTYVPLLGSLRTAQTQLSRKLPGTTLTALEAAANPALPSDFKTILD

B1: N-terminal HA-tagged MAPKAPK3 (enzyme)
chain: MDGETAEEQGGPVPPPVAPGGPGLGGAPGGRREPKKYAVTDDYQLSKQVLGLGVNGKVLECFHRRTGQKCALKLLYDSPKARQEVDHHWQASGGPHIVCILDVYENMHHGKRCLLIIMECMEGGELFSRIQERGDQAFTEREAAEIMRDIGTAIQFLHSHNIAHRDVKPENLLYTSKEKDAVLKLTDFGFAKETTQNALQTPCYTPYYVAPEVLGPEKYDKSCDMWSLGVIMYILLCGFPPFYSNTGQAISPGMKRRIRLGQYGFPNPEWSEVSEDAKQLIRLLLKTDPTERLTITQFMNHPWINQSMVVPQTPLHTARVLQEDKDHWDEVKEEMTSALATMRVDYDQVKIKDLKTSNNRLLNKRRKKQAGSSSASQGCNNQ
notes: Expressed in HEK293T cells from pcDNA3.1(+); also called HA-MAPKAPK3; not shown: HA-tag at the N-terminus
As for B1, the binding result was “binds”.
